The values that follow come from patent US20250163186A1 (PHYLAXIS BIOSCIENCE, published 2025).

Assay [1] addresses T1, human IgE (human, UniProt P01854 1-428).
T1 construct: written under the same molecule; also called IgE (Abcam ab65866); soluble IgE
In words: SPR (Biacore T200, 37 C), IgE high density (~1400 RU) on protein L, 1:1 fit. The procedure: (§1) All experiments were done using a Biacore T200 instrument with a CM5 chip at 37° C. except immobilization of Protein L, which was done at 25° C.
(§2) For this study Flow Cell (FC) 1 was used as the reference for FC2, FC3 and FC4. Protein L (15 mg/ml stock concentration) was diluted (1:50 dilution, 0.3 mg/ml diluted concentration) in 10 mM sodium acetate buffer at pH 4.5 and immobilized onto all FCs to a level of ˜14000 RU, using the standard amine coupling chemistry. HBS-P (10 mM Hepes, pH 7.4, 150 mM NaCl, 0.05% v/v surfactant P20) was used as the immobilization running buffer. […] HBS-P was used as the capture running buffer. Overnight kinetics were performed for all analytes in the presence of HBS-P. The flow rate of all analyte solutions was maintained at 50 μL/min. The contact and dissociation times used were 120 seconds and 600 seconds, respectively. Glycine pH 1.5 was injected for 20 seconds for surface regeneration. This regeneration condition takes away all captured ligand. Therefore, fresh ligand solution was captured in the beginning of each injection cycle. Injected analyte concentrations are from 80 nM to 0.01953 nM (four-fold dilutions). All analytes were injected in duplicate.

For assay [2], the target named is T1, human IgE. In words: flow cytometry, blocks binding of 5 nM IgE to FCER1A on human mast cells. Background: A flow cytometer gives signals particle by particle.
In assay [3] the target is T1, human IgE. Description: SPR (Biacore T200, 37 C), IgE medium density (~114 RU) on protein L, 1:1 fit. On the procedure: as §1, §2
Assay [4] concerns the target T1, human IgE. Description: ELISA, human IgE coated. On the procedure: (§3) The following day, plates were blocked with 1% BSA in PBS for 30 min-1 hour. […] Afterwards, the plates were PBST washed with the plate washer and detected with Peroxidase AffiniPure Donkey Anti-Human IgG, Fcγ fragment specific secondary detection antibody. Room temperature TMB was added and OD650 was measured using the Emax plate reader. […] Room temperature TMB was added and OD650 was measured using the Emax plate reader. The data was plotted and analyzed using GraphPad Prism analysis software.

The target of assay [5] is T1, human IgE. Description: SPR, blocks binding of 5 nM IgE to captured FCER1A. The procedure:
as §1
Sensorgrams from the overnight kinetics were plotted for further evaluation.
Background: SPR reads the build-up and loss of mass on a sensor chip optically.

The target in assay [6] is T1, human IgE. Description: ELISA, plate-coated IgE, apparent Kd (one site fit). A general note: In an ELISA, binding on a coated surface is turned into a signal by an enzyme label.
In assay [7] the target is human IgE pre-complexed to FCER1A on the surface of human mast cells (human, UniProt P01854-1 1-428). Description: flow cytometry on IgE-loaded human mast cells.
human IgE pre-complexed to FCER1A on the surface of human mast cells, sequence (P01854 other isoform, or with tags, fused parts or gaps): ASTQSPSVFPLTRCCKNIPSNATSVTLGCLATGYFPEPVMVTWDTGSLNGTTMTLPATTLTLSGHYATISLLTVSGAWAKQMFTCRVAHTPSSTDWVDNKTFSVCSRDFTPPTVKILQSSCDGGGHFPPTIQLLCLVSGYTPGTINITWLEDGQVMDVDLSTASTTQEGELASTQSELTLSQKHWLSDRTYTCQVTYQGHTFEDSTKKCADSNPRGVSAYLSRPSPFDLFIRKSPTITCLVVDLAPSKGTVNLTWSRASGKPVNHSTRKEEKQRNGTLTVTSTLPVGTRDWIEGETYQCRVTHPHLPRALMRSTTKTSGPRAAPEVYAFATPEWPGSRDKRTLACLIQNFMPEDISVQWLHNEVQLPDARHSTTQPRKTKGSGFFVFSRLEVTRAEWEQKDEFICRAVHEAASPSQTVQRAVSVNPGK
Assay [8] addresses recombinant human anti-hapten dinitrophenol (DNP) IgE (rhIgE) (human, UniProt P01854-1 1-428). Description: cell-based or functional assay.
Assay [9] concerns the target T1, human IgE. Description: ELISA, plate-coated IgE.
The target in assay [10] is T1, human IgE. Description: SPR (Biacore T200, 37 C), IgE low density (~14 RU) on protein L, 1:1 fit. On the procedure:
as §1, §2

The target in assay [11] is T1, human IgE. In words: ELISA, blocks binding of 5 nM IgE to coated FCER1A. The procedure: as §3
The target of assay [12] is human IgM (Novus, NBP1-97056) (human, UniProt P01871-1 1-453). Description: ELISA, plate-coated immunoglobulin.
human IgM (Novus, NBP1-97056), sequence (P01871 other isoform, or with tags, fused parts or gaps): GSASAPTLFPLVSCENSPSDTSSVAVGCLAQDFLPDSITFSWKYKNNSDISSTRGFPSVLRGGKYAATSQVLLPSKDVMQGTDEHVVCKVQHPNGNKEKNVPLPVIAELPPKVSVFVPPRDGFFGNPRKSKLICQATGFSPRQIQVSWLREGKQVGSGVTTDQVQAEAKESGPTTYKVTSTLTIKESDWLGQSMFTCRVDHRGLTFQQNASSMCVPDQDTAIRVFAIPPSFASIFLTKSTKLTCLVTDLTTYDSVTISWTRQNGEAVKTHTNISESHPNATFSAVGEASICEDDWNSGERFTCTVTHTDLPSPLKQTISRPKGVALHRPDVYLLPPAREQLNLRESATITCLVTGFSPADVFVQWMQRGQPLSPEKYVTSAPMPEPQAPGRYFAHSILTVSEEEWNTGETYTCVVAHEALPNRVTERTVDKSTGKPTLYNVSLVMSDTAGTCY
Assay [13] addresses T2, chimeric cynomolgus monkey IgE (cynomolgus monkey (Macaca fascicularis)).
T2 construct: domain: CH1-4 constant domains; Generated in house in place of commercial cynomolgus IgE; also called cyno IgE
Description: ELISA, plate-coated cynomolgus IgE, apparent Kd (one site fit).

Assay [14] concerns the target T1, human IgE. In words: ELISA, plate-coated IgE. The source holds these as a separate data set.
Assay [15] has as its target human IgG2 (Athensresearch, 16-16-090707-2) (human, UniProt P01859-1 1-326 = IgG part). In words: ELISA, human IgG2 coated.
Assay [16] addresses T1, human IgE. In words: ELISA, blocks binding of 5 nM IgE to coated FCER2/CD23. On the procedure: as §3
In assay [17] the target is T1, human IgE. In words: ELISA, blocks binding of 5 nM IgE to coated FCER1A. On the procedure: as §3
This is another data set of the same source.

Assay [18] has as its target T1, human IgE. Description: ELISA, plate-coated IgE, apparent Kd (one site fit). From the text: The data was plotted and analyzed using GraphPad Prism analysis software.
This is another data set of the same source.

Assay [19] addresses T3, human IgE pre-complexed to FceRII/CD23 on the surface of RPMI 8866 cells (human, UniProt P01854 1-428; P06734 1-321).
T3 construct: also called IgE:CD23 complexes; IgE in complex with CD23
Description: flow cytometry, IgE-loaded RPMI 8866 cells. The procedure: The washed cells were diluted to 0.8×10⁶ cells/mL. 50 μL of this cell suspension was then transferred to wells of a round-bottom 96-well assay plate (40 k cells/well). 50 μL of titrated test articles (diluted to 1 μM and titrated across 1:3 in FACS buffer) were added to the RPMI 8866 cells which produced a 2-fold dilution of the antibody concentrations from the titration series. The final starting concentration was 500 nM with a total of 11 points in the titration. […] The cells were incubated with secondary detection antibodies for 20 minutes then washed once, resuspended in 60 μL of FACS Buffer, and analyzed on a NovoCyte 3000 flow cytometer (ACEA Biosciences, Inc.).

The target in assay [20] is T4, recombinant human FCER1A-His (ACRO FCA-H5228) (human, UniProt P12319 26-205).
T4 construct: Bought protein; also called FceRIA; IgE receptor
T4 sequence: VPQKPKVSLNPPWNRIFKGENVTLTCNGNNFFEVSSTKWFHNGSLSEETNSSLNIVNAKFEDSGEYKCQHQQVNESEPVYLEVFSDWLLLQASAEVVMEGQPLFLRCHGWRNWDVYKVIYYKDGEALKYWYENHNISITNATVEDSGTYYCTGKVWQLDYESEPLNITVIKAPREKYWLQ
In words: SPR, antibody alone injected over captured FCER1A. On the procedure: (§4) All experiments were done using a Biacore T200 instrument with a CM5 chip at 25° C., Flow Cell (FC) 1 was used as the reference for FC2, and FC3 for FC4.
(§5) Anti-His antibody (1 mg/ml stock) was diluted (1:100 dilution, 0.01 mg/ml diluted concentration) in 10 mM sodium acetate buffer at pH 4.5 and immobilized onto FCs 1 and 2 to a level of ˜14000 RU, using the standard amine coupling chemistry. […] FCER1A (0.4 mg/ml stock concentration) was diluted ([…], ˜0.004 mg/ml diluted concentration) in PBS-P captured onto FC2 to levels of ˜130 RU. PBS-P was used as the capture running buffer. Overnight kinetics were performed for all analytes in the presence of PBS-P. The flow rate of all analyte solutions was maintained at 50 μL/min. The contact and dissociation times used were 120 seconds and 300 seconds, respectively. Glycine pH 1.5 was injected for 20 seconds for surface regeneration. This regeneration condition takes away all captured FCER1A. Therefore, fresh FCER1A was captured in the beginning of each injection cycle. […] All analytes were injected in duplicate. […] Sensorgrams from the overnight kinetics were plotted for further evaluation.

The target in assay [21] is T1, human IgE. In words: SPR, blocks binding of 5 nM IgE to captured FCER1A. On the procedure: as §4, §5
This is another data set of the same source.

The target of assay [22] is T1, human IgE. Description: ELISA, human IgE coated. On the procedure: as §3
The source holds these as a separate data set.

Where two headings read alike, the source gives them in different places.

T1 sequence (P01854 other isoform, or with tags, fused parts or gaps limits assumed, form in doubt): as the sequence (P01854 other isoform, or with tags, fused parts or gaps) above
T3 sequence (P01854 other isoform, or with tags, fused parts or gaps, chain 1 of 2): as the sequence (P01854 other isoform, or with tags, fused parts or gaps) above
T3 sequence (P06734 whole entry, chain 2 of 2): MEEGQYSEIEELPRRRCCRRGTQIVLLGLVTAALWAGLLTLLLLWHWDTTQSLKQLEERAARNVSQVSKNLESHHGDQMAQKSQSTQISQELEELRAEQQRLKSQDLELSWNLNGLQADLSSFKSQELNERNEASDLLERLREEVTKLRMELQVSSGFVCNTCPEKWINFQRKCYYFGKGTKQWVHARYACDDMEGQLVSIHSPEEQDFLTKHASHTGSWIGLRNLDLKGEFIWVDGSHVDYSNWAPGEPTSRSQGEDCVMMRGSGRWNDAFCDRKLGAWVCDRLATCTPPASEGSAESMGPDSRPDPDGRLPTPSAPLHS
recombinant human anti-hapten dinitrophenol (DNP) IgE (rhIgE), sequence (P01854 other isoform, or with tags, fused parts or gaps): as the sequence (P01854 other isoform, or with tags, fused parts or gaps) above

B1: hzB10v40-IgG1 DSELF Fc region (cx13032) (Fc fusion)
chain: EVQLLESGGGEVQPGGSLRLSCVASGLTFSSYNMGWLRQAPGKEREFVGLSGSSSTSTYYAESVKGRFTISRDNAKNTVYLQMTSLRAEDTAVYYCAARRLLSTYWSDRSWDFWGQGTLVTVEPGGGGDKTHTCPPCPAPELLDGPSVFLFPPKPKDTLMISRTPEVTCVVVDVEHEDPEVKFNWYVDGVEVHNAKTKPREEQYNSTYRVVSVLTVLHQDWLNGKEYKCKVSNKAFPAPIEKTISKAKGQPREPQVYTLPPSREEMTKNQVSLTCLVKGFYPSDIAVEWESNGQPENNYKTTPPVLDSDGSFFLYSKLTVDKSRWQQGNVFSCSVMHEALHNHYTQKSLSLSPGK
notes: hzB10v40 VHH + GGGG linker + IgG1 DSELF Fc; described as bivalent; also called hzB10v40-DSELF; hzB10v40-IgG DSELF Fc
Turning to B1, the Kd was determined as 1.1 nM in assay [1]; 0.6 nM in [3]; 0.11 nM in assay [4]; 0.266 nM in [6]; 0.6 nM in assay [10]. For the same molecule, the figures for the koff in assay [1], in assay [3] and in assay [10] were 0.000258 s⁻¹, 0.000207 s⁻¹ and 0.000449 s⁻¹, respectively. The kon in [1] worked out at 242000 M⁻¹ s⁻¹; in assay [3], 373000 M⁻¹ s⁻¹; in assay [10], 422000 M⁻¹ s⁻¹. The IC50 in assay [2] was 0.61 nM; in assay [5], approximately 3.4 nM; in assay [11], 7.63 nM. In addition, the Bmax in [4] is 0.808 OD 650. The results for the binding result in assay [7] and in [12] were “no binding (tested: titrated from 1000 nM)” and “no binding”, respectively. Besides, the “Activation IC50 (nM), CD63 on mast cells” value in assay [8] was determined as 3.09 nM. In assay [9], the “Bmax (OD 650 nm)” value was determined as 0.873 OD 650 nm.

B2: cx10710, comprising IgG1 SELF Fc (antibody, V domains shown)
VH: QVQLQESGPGLVKPSETLSLTCAVSGYSITSGYSWNWIRQPPGKKLEWIGSITYDGSSNYNPSLKSRVTISRDTSKNQFSLKLSSVTAADTAVYYCARGSHYFGHWHFAVWGAGTLVTVSS
VL: DIQLTQSPSSLSASVGDRVTITCRASQSVDYDGDSYMNWYQQKPGQPPKLLIYAASYLGSEIPARFSGSGSGTDFTLTISSLQPEDFATYYCQQSHEDPYTFGAGTKLEIKR
notes: Conventional full length anti-IgE antibody with IgG1 SELF Fc; also called conventional antibody comparator; 710 (a derivative of Omalizumab); copies: 2 + 2
For B2, the Bmax in assay [4] is 0.95 OD 650; in assay [19], 15000 Mean APC-A; in assay [22], 1.2 OD 650. The Kd in assay [4] was 0.0585 nM; in assay [13] it was 0.288 nM; in [6], 0.127 nM; in assay [18], 0.102 nM; in assay [19], 6.17 nM; in [22] it was 0.123 nM. Besides, the IC50 in assay [5] is approximately 3.2 nM; in assay [16], 0.604 nM; in assay [17] it was 2.71 nM; in assay [11], 5.59 nM; in assay [21], approximately 2.1 nM. For the same molecule, the “Bmax (OD 650 nm)” value turned out to be 0.814 OD 650 nm in assay [14] and 0.946 OD 650 nm in [9]. The binding result is recorded as “no binding (tested: 250 nM)” in [15], “no binding (tested: titrated from 1000 nM)” in [7] and “no binding (tested: 200 nM)” in assay [20]. Further, the “Activation IC50 (nM), CD63 on mast cells” value in [8] was determined as 1.93 nM.

Broadly, the koff is a measure of how fast the partners let go of each other. Broadly, the kon is a measure of how fast the partners come together. The IC50 is the concentration that inhibits the measured activity by half.
